Experimental data: paper PMC3119699, “Characterizing the Role of Cell-Wall β-1,3-Exoglucanase Xog1p in Candida albicans Adhesion by the Human Antimicrobial Peptide LL-37” (PLoS ONE, 2011)
No end group written: not given here.

Columns and labels:
[1] = biological target: T1, Xog1p, cell-wall β-1,3-exoglucanase of C. albicans (endogenous) (C. albicans (endogenous in SC5314)) (UniProt P29717)
T1 sequence: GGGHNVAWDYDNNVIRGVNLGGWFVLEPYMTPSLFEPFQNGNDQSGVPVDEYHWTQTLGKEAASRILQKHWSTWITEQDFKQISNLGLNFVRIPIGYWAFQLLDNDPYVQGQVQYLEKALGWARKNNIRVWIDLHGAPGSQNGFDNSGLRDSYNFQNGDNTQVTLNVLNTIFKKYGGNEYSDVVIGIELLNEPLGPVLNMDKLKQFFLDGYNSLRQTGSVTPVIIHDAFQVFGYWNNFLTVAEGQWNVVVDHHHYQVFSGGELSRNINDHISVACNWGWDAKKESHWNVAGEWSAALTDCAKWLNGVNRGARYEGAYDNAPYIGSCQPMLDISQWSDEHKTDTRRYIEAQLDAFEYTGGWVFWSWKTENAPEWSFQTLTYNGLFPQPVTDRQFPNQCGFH

[2] = biological target: T2, Xog1_(90–115) (residues 90–115 from Xog1p) (C. albicans); experiment: ELISA; Xog1_(90–115) (5 µg) coated on wells; BA-LL37 0.01–5 µg/ml in 0.1% TBST, room temperature 1 h; SA-HRP, A450; conditions: both partners purified
T2 construct: Residues 90–115 of C. albicans cell-wall β-1,3-exoglucanase Xog1p; also called Xog1p_(90–115); source: synthetic peptide (MDBio, Inc.)
T2 peptide: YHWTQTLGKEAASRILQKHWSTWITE

[3] = biological target: T3, soluble His-tagged recombinant Xog1p (rXog1p) (C. albicans, UniProt P29717 41-438); experiment: pull-down; streptavidin-agarose, BA-LL37 (bait) and purified rXog1p in TBS, room temperature 2 h; six washes with TBS; Tricine SDS-PAGE, Coomassie Blue; conditions: both partners purified
T3 construct: An initiator Met comes from the NdeI site; No tag removal is described; also called full-length rXog1p; not shown: His tag (detected with anti-His6)
T3 sequence: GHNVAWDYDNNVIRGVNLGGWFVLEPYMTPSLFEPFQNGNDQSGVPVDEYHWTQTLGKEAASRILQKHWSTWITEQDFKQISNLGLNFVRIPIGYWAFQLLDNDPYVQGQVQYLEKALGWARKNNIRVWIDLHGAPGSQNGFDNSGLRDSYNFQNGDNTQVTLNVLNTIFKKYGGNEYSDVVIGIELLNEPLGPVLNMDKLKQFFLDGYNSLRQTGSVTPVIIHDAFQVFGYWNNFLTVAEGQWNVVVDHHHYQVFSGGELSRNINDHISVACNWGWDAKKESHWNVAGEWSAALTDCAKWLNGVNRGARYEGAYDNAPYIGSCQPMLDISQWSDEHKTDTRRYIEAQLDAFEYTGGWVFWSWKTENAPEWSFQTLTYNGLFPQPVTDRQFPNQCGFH

B1: LL-37 (human cathelicidin antimicrobial peptide) (peptide)
peptide: LLGDFFRKSKEKIGKEFKRIVQRIKDFLRNLVPRTES
With B1 the inhibition of C. albicans adhesion to polystyrene (XTT reduction) at 5 µg/ml (∼1.1 µM) LL-37 [1] was 70%.

B2: biotinylated LL-37 (BA-LL37) (peptide)
peptide: LLGDFFRKSKEKIGKEFKRIVQRIKDFLRNLVPRTES
modifications: also: biotinylated (site not given here)
notes: LL-37, the mature 37-residue C-terminal peptide cut from human cathelicidin by proteinase-3; biotinylated; Detected or captured by its biotin (SA-HRP, SA-DTAF, streptavidin-agarose); source: synthetic peptide (MDBio, Inc.), 95% pure
B2: binds [2]; binds [3].
